Measurements reported in the supplement of paper PMC9112550, “Optimization of the antimicrobial peptide Bac7 by deep mutational scanning” (BMC Biology, 2022).

Test system: Escherichia coli TOP10
Assay: shrunken log2 fold change of peptide-encoding DNA abundance (4.5 h post-induction vs induction); higher = less antimicrobial activity (less host growth inhibition)
Settings: time post-induction: 4.5 h; library: site-saturation at positions 5, 18, 19, 20
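Further: peptides expressed intracellularly from a pBAD plasmid library in pooled LB shake-flask culture, induced with 0.3% L-arabinose, DNA abundance read by NGS, three biological replicates, DESeq2 with apeglm shrinkage.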

Row | Sequence | shrunken log2 fold change
1 | RRIRVRPPRLPRPRPRPHHPPRP | -0.131
2 | RRIRVRPPRLPRPRPRPHHTPRP | -0.731
3 | RRIRVRPPRLPRPRPRPHIPPRP | -0.602
4 | RRIRVRPPRLPRPRPRPHKHPRP | -0.483
5 | RRIRVRPPRLPRPRPRPHLMPRP | -0.36
6 | RRIRVRPPRLPRPRPRPHLNPRP | -0.455
7 | RRIRVRPPRLPRPRPRPHMCPRP | -0.301
8 | RRIRVRPPRLPRPRPRPHNMPRP | -0.389
9 | RRIRVRPPRLPRPRPRPHQHPRP | -0.189
10 | RRIRVRPPRLPRPRPRPHTDPRP | -0.141
11 | RRIRVRPPRLPRPRPRPHTSPRP | -0.643
12 | RRIRVRPPRLPRPRPRPHTYPRP | -0.154
13 | RRIRVRPPRLPRPRPRPHVQPRP | -0.0929
14 | RRIRVRPPRLPRPRPRPHVWPRP | -0.145
15 | RRIRVRPPRLPRPRPRPHYNPRP | -0.366
16 | RRIRVRPPRLPRPRPRPHYPPRP | -0.675
17 | RRIRVRPPRLPRPRPRPIAPPRP | 0.328
18 | RRIRVRPPRLPRPRPRPIAYPRP | -0.184
19 | RRIRVRPPRLPRPRPRPIDPPRP | -0.0131
20 | RRIRVRPPRLPRPRPRPIEWPRP | -0.000773
21 | RRIRVRPPRLPRPRPRPIFNPRP | -0.274
22 | RRIRVRPPRLPRPRPRPIGCPRP | -0.0514
23 | RRIRVRPPRLPRPRPRPIHMPRP | -0.0179
24 | RRIRVRPPRLPRPRPRPIICPRP | -0.448
25 | RRIRVRPPRLPRPRPRPIIGPRP | 0.0272

Row | Sequence | shrunken log2 fold change
26 | RRIRVRPPRLPRPRPRPIIYPRP | -0.475
27 | RRIRVRPPRLPRPRPRPIKEPRP | -0.327
28 | RRIRVRPPRLPRPRPRPIKFPRP | 0.0613
29 | RRIRVRPPRLPRPRPRPIKYPRP | -0.169
30 | RRIRVRPPRLPRPRPRPILRPRP | 0.0599
31 | RRIRVRPPRLPRPRPRPINRPRP | -0.239
32 | RRIRVRPPRLPRPRPRPISIPRP | -0.133
33 | RRIRVRPPRLPRPRPRPITGPRP | -0.00538
34 | RRIRVRPPRLPRPRPRPIVHPRP | -0.00223
35 | RRIRVRPPRLPRPRPRPIVVPRP | -0.129
36 | RRIRVRPPRLPRPRPRPIWMPRP | -0.0796
37 | RRIRVRPPRLPRPRPRPIWYPRP | -0.146
38 | RRIRVRPPRLPRPRPRPKATPRP | 0.266
39 | RRIRVRPPRLPRPRPRPKCKPRP | -0.191
40 | RRIRVRPPRLPRPRPRPKCQPRP | 0.106
41 | RRIRVRPPRLPRPRPRPKDHPRP | -0.308
42 | RRIRVRPPRLPRPRPRPKFGPRP | 0.017
43 | RRIRVRPPRLPRPRPRPKFVPRP | 0.11
44 | RRIRVRPPRLPRPRPRPKGPPRP | 0.36
45 | RRIRVRPPRLPRPRPRPKGVPRP | 0.472
46 | RRIRVRPPRLPRPRPRPKITPRP | -0.524
47 | RRIRVRPPRLPRPRPRPKIYPRP | -0.309
48 | RRIRVRPPRLPRPRPRPKKVPRP | -0.11
49 | RRIRVRPPRLPRPRPRPKLFPRP | 0.0793
50 | RRIRVRPPRLPRPRPRPKMKPRP | 0.839

Row | Sequence | shrunken log2 fold change
51 | RRIRVRPPRLPRPRPRPKNCPRP | -0.183
52 | RRIRVRPPRLPRPRPRPKPNPRP | 0.275
53 | RRIRVRPPRLPRPRPRPKQKPRP | -0.0521
54 | RRIRVRPPRLPRPRPRPKSKPRP | -0.117
55 | RRIRVRPPRLPRPRPRPKSTPRP | -0.158
56 | RRIRVRPPRLPRPRPRPKTYPRP | 0.325
57 | RRIRVRPPRLPRPRPRPKVYPRP | -0.433
58 | RRIRVRPPRLPRPRPRPLAEPRP | 0.433
59 | RRIRVRPPRLPRPRPRPLAHPRP | 0.00485
60 | RRIRVRPPRLPRPRPRPLASPRP | -0.214
61 | RRIRVRPPRLPRPRPRPLCAPRP | 0.17
62 | RRIRVRPPRLPRPRPRPLDCPRP | -0.0035
63 | RRIRVRPPRLPRPRPRPLDFPRP | -0.147
64 | RRIRVRPPRLPRPRPRPLFGPRP | -0.104
65 | RRIRVRPPRLPRPRPRPLFHPRP | -0.311
66 | RRIRVRPPRLPRPRPRPLFLPRP | -0.417
67 | RRIRVRPPRLPRPRPRPLHNPRP | -0.143
68 | RRIRVRPPRLPRPRPRPLICPRP | -0.0443
69 | RRIRVRPPRLPRPRPRPLIIPRP | -0.445
70 | RRIRVRPPRLPRPRPRPLITPRP | -0.439
71 | RRIRVRPPRLPRPRPRPLKQPRP | -0.0521
72 | RRIRVRPPRLPRPRPRPLLIPRP | -0.304
73 | RRIRVRPPRLPRPRPRPLNAPRP | -0.331
74 | RRIRVRPPRLPRPRPRPLNDPRP | 0.171
75 | RRIRVRPPRLPRPRPRPLNYPRP | -0.621

Row | Sequence | shrunken log2 fold change
76 | RRIRVRPPRLPRPRPRPLPDPRP | -0.0431
77 | RRIRVRPPRLPRPRPRPLRKPRP | 0.317
78 | RRIRVRPPRLPRPRPRPLSEPRP | 0.0246
79 | RRIRVRPPRLPRPRPRPLSVPRP | -0.0714
80 | RRIRVRPPRLPRPRPRPLTYPRP | -0.356
81 | RRIRVRPPRLPRPRPRPLVLPRP | -0.122
82 | RRIRVRPPRLPRPRPRPLVVPRP | -0.21
83 | RRIRVRPPRLPRPRPRPLVYPRP | -0.193
84 | RRIRVRPPRLPRPRPRPLWIPRP | -0.189
85 | RRIRVRPPRLPRPRPRPLWSPRP | -0.0257
86 | RRIRVRPPRLPRPRPRPLYDPRP | -0.257
87 | RRIRVRPPRLPRPRPRPMAMPRP | -0.00688
88 | RRIRVRPPRLPRPRPRPMCDPRP | -0.0462
89 | RRIRVRPPRLPRPRPRPMCMPRP | 0.0119
90 | RRIRVRPPRLPRPRPRPMETPRP | -0.074
91 | RRIRVRPPRLPRPRPRPMFTPRP | -0.0798
92 | RRIRVRPPRLPRPRPRPMGHPRP | 0.0767
93 | RRIRVRPPRLPRPRPRPMGKPRP | -0.0406
94 | RRIRVRPPRLPRPRPRPMGMPRP | 0.0727
95 | RRIRVRPPRLPRPRPRPMHIPRP | -0.231
96 | RRIRVRPPRLPRPRPRPMIKPRP | -0.156
97 | RRIRVRPPRLPRPRPRPMKEPRP | -0.04
98 | RRIRVRPPRLPRPRPRPMKLPRP | -0.0169
99 | RRIRVRPPRLPRPRPRPMKQPRP | -0.0165
100 | RRIRVRPPRLPRPRPRPMLSPRP | -0.0455

Row | Sequence | shrunken log2 fold change
101 | RRIRVRPPRLPRPRPRPMMQPRP | 0.0134
102 | RRIRVRPPRLPRPRPRPMMWPRP | -0.368
103 | RRIRVRPPRLPRPRPRPMNEPRP | -0.111
104 | RRIRVRPPRLPRPRPRPMPFPRP | -0.259
105 | RRIRVRPPRLPRPRPRPMPMPRP | 0.0529
106 | RRIRVRPPRLPRPRPRPMQFPRP | 0.0422
107 | RRIRVRPPRLPRPRPRPMQGPRP | -0.0882
108 | RRIRVRPPRLPRPRPRPMQHPRP | 0.0443
109 | RRIRVRPPRLPRPRPRPMQVPRP | 0.121
110 | RRIRVRPPRLPRPRPRPMRMPRP | -0.00559
111 | RRIRVRPPRLPRPRPRPMSMPRP | -0.323
112 | RRIRVRPPRLPRPRPRPMSNPRP | 0.0709
113 | RRIRVRPPRLPRPRPRPMTVPRP | 0.116
114 | RRIRVRPPRLPRPRPRPMVVPRP | -0.0329
115 | RRIRVRPPRLPRPRPRPMWVPRP | 0.0736
116 | RRIRVRPPRLPRPRPRPMYIPRP | -0.0844
117 | RRIRVRPPRLPRPRPRPMYKPRP | -0.608
118 | RRIRVRPPRLPRPRPRPMYSPRP | -0.242
119 | RRIRVRPPRLPRPRPRPNCPPRP | -0.0515
120 | RRIRVRPPRLPRPRPRPNDCPRP | -0.2
121 | RRIRVRPPRLPRPRPRPNEDPRP | -0.168
122 | RRIRVRPPRLPRPRPRPNEKPRP | -0.0575
123 | RRIRVRPPRLPRPRPRPNELPRP | -0.00739
124 | RRIRVRPPRLPRPRPRPNETPRP | -0.033
125 | RRIRVRPPRLPRPRPRPNFAPRP | 0.104

Row | Sequence | shrunken log2 fold change
126 | RRIRVRPPRLPRPRPRPNFIPRP | -0.168
127 | RRIRVRPPRLPRPRPRPNLEPRP | 0.0543
128 | RRIRVRPPRLPRPRPRPNLGPRP | -0.185
129 | RRIRVRPPRLPRPRPRPNLQPRP | 0.0671
130 | RRIRVRPPRLPRPRPRPNQVPRP | -0.185
131 | RRIRVRPPRLPRPRPRPNRAPRP | 0.202
132 | RRIRVRPPRLPRPRPRPNRCPRP | -0.364
133 | RRIRVRPPRLPRPRPRPNRYPRP | -0.4
134 | RRIRVRPPRLPRPRPRPNSQPRP | -0.131
135 | RRIRVRPPRLPRPRPRPNTNPRP | -0.421
136 | RRIRVRPPRLPRPRPRPNVAPRP | 0.177
137 | RRIRVRPPRLPRPRPRPNVWPRP | 0.0782
138 | RRIRVRPPRLPRPRPRPNYCPRP | -0.157
139 | RRIRVRPPRLPRPRPRPNYRPRP | 0.0968
140 | RRIRVRPPRLPRPRPRPPCPPRP | 0.0333
141 | RRIRVRPPRLPRPRPRPPDAPRP | 0.254
142 | RRIRVRPPRLPRPRPRPPECPRP | -0.186
143 | RRIRVRPPRLPRPRPRPPEGPRP | 0.582
144 | RRIRVRPPRLPRPRPRPPEWPRP | -0.00654
145 | RRIRVRPPRLPRPRPRPPFVPRP | 0.0393
146 | RRIRVRPPRLPRPRPRPPGIPRP | 0.154
147 | RRIRVRPPRLPRPRPRPPHEPRP | 0.42
148 | RRIRVRPPRLPRPRPRPPIGPRP | 0.174
149 | RRIRVRPPRLPRPRPRPPISPRP | 0.0369
150 | RRIRVRPPRLPRPRPRPPKEPRP | 0.0261
